Data taken from patent US5077204A, “Yeast endopeptidase for basic amino-acid site cleavage, preparation and use” (Chiron Corporation, priority 1988, dated 1991).

What was measured:
[1] = molecular target: T1, KEX2 endopeptidase (kex2[YEp24-pJ2B] membranes) (Saccharomyces cerevisiae, UniProt P13134); assay: Endopeptidase activity in membranes from kex2 cells carrying multicopy plasmid pJ2B (over-produced specific endopeptidase); assay type: biochemical, S. cerevisiae
T1 construct: not only includes the KEX2 gene, but also the necessary transcriptional and translational regulatory signals for expression in yeast; expressed in transfected cells; host or cells: S. cerevisiae XBH16-15A (MATalpha kex2-1) carrying YEp24-pJ2B
T1 sequence (P13134 114-814): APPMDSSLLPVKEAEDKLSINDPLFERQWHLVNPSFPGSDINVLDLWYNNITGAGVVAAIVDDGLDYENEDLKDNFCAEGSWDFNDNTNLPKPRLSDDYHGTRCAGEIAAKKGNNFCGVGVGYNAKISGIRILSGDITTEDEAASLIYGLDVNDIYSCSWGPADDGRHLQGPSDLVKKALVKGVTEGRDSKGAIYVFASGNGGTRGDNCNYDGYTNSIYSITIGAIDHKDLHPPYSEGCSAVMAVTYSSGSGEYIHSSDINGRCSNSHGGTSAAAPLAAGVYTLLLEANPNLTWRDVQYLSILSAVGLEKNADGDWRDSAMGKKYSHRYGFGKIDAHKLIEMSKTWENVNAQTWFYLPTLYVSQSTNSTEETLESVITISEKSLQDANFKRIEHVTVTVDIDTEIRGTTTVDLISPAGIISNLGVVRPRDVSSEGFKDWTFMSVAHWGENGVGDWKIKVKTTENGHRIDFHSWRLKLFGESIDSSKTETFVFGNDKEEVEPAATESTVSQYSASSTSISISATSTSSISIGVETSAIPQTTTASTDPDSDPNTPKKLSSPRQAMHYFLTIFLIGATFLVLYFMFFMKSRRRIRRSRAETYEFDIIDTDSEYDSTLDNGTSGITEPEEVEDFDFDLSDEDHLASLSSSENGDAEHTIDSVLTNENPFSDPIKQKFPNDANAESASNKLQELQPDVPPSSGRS
Method: Permeabilization of whole yeast cells with the non-ionic detergent Brij 58, preparation of crude membrane fractions, and measurement of protein concentration were conducted by the methods described previously (Julius et al., 1983, supra), incorporated herein by reference. To measure peptidase activity, samples of permeabilized cells or membrane material were added to a reaction mixture containing 0.1-0.5 mM fluorogenic peptide substrate (added from a 20 mM stock dissolved in DMSO) and 200 mM HEPES-Tris (pH 7.0), in a final volume of 0.4 ml. Following incubation for 30 min at 37° C., whole cells were removed by centrifugation in a microfuge (Eppendorf) and membrane material was removed by Ba(OH)2 -ZnSO4 precipitation. The amount of fluorescence formed in the supernatant solution was determined in a fluorescence spectrophotometer (Perkin-Elmer, Model MPF-44B), set either at an excitation wavelength of 335 nm and an emission wavelength of 410 nm (for measurement of β-naphthylamine) or at an excitation wavelength of 380 nm and an emission wavelength of 460 nm (for measurement of 7-amino-4-methyl-coumarin, AMC). To determine the number of moles of substrate hydrolyzed, the fluorescence yield of samples was compared to a standard curve prepared with known concentrations of authentic AMC dissolved in the same buffer.
Cells of strain XBH1615A that had been transformed with the plasmids
indicated, or that contained pJ2B in integrated form, were grown in SCUra
and membranes were prepared as described in the Experimental.
Endopeptidase activity was assayed as described in the Experimental. All
substrates tested were present at 0.1 mM.
Endopeptidase activity was assayed using Boc--GlnArgArg--MCA as the
substrate, as outlined in the Experimental. All inhibitors were added fro
a 0.1 M stock dissolved in dimethyl sulfoxide.

[2] = test system: human proinsulin (alpha-factor leader-proinsulin fusion); assay: Processing of proinsulin in yeast transformed with KEX2 containing vectors; assay type: cell-based, yeast strains AB109 and AB103.1; details: yeast transformed with pYBCA5-KEX2 versus pYBCA5; cleavage between alpha-factor leader and proinsulin, B/C and C/A junctions
Text: Plasmids containing proinsulin and KEX2 genes (pYBCA5-KEX2 or pYBCA5-KEX4) or control plasmids with only proinsulin sequences (pYBCA5) or no insert (pCl/1) were used to transform kex2^- mutant yeast strain AB109 (Matα, kex2-1, ade2-1, his^-, leu2-3,112, trpl^-289, ura3-25 ura3-52, (KIL-k), cir° ) or KEX2^+ yeast strain AB103.1 (matα, pep4-3, leu2-3, leu2-112, ura3-52, his4-580, cir° ) following the procedure of Hinnen et al., Proc. Natl. Acad. Sci. USA (1978) 75:1929-1933. Transformants were grown in a low sulfate medium (LSM) containing 0.1 mM (NH4)2 SO4 until mid-exponential phase (OD660 nm 1-3), collected by centrifugation and resuspended in LSM containing 0.25 mCi of carrier free [ ^35 S]SO4^2- at an OD660 =2. After 10 min incubation, a 50-fold excess of (NH4)2 SO4 was added and cells were further incubated for 15-30 min. After centrifugation, proteins present in the cell free extract were precipitated with 12% trichloroacetic acid, 0.5 mg/ml deoxycholate. The precipitate was resuspended, reduced and alkylated and submitted to protein acrylamide gel electrophoresis (Laemmli, Nature (1970) 227:680). Gels were fixed, fluorographed, dried and exposed to Kodak XAR-5 film at -70° C.

B1: KEX2 endopeptidase: yeast endopeptidase, product of the KEX2 gene, cleaving on the carboxyl side of a pair of basic amino acids (protein, UniProt P13134 114-814, looked up)
Kexin: T1 sequence (P13134 114-814)
Q: What does the source list for B1?
A: pH optimum [1]: 7.0-7.5; Activity at pH 5.0 ([1]; pH 5.0): little activity detected; Activity at pH 8.5 ([1]; pH 8.5): about half-maximal activity; Processing of proinsulin (autoradiography of secreted insulin-related bands) [2]: able to process proinsulin at specific cleavage sites
